Assay results published in patent US20190016822A1 (MEDITOPE BIOSCIENCES, published 2019).

How the values were obtained:
[1] = target: the molecule itself; test: size-exclusion chromatography; self-crosslinking
[2] = target: the molecule itself; test: size-exclusion chromatography; self-association

| Protein | binding result [1] | binding result [2] |
| --- | --- | --- |
| SnAP-body variant 1 (anti-CD33) (antibody, human IgG1, kappa, also called self-crosslinking antibody; Anti-CD33 SnAP-body variant 1) heavy: not shown light: QIVLTQSPAIMSASPGEKVTITCSASSSISYMHWFQQRTNGSPRLWIYTTSNLASGVPARFSGSGSGTSYSLTISRMEAEDEADYYCHQRSTYPLTFGAGTKLELKRTVAAPSVFIFPPSDEQLKSGTASVVCLLNNFYPREAKVQWKVDNALQSGNSQESVTEQDSKDSTYSLSSTLTLSKADYEKHKVYACEVTHQGLSSPVTKSFNRGEC | binds | – |
| SnAP-body variant 2 (anti-CD33) (antibody, human IgG1, kappa, also called self-crosslinking antibody; Anti-CD33 SnAP-body variant 2) heavy: not shown light: QIVLTQSPAIMSASPGEKVTITCSASSSISYMHWFQQRTNGSPRLWIYTTSNLASGVPARFSGSGSGTSYSLTISRMEAEDEADYYCHQRSTYPLTFGAGTKLELKRTVAAPSVFIFPPSDEQLKSGTASVVCLLNNFYPREAKVQWKVDNALQSGNSQESVTEQDSKDSTYSLSSTLTLSKADYEKHKVYACEVTHQGLSSPVTKSFNRGEC | binds | – |
| SnAP-body variant 3 (anti-CD33) (antibody, human IgG1, kappa, also called self-crosslinking antibody) heavy: not shown light: QIVLTQSPAIMSASPGEKVTITCSASSSISYMHWFQQRTNGSPRLWIYTTSNLASGVPARFSGSGSGTSYSLTISRMEAEDEADYYCHQRSTYPLTFGAGTKLELKRTVAAPSVFIFPPSDEQLKSGTASVVCLLNNFYPREAKVQWKVDNALQSGNSQESVTEQDSKDSTYSLSSTLTLSKADYEKHKVYACEVTHQGLSSPVTKSFNRGEC | binds | – |
| control antibody (meditope-enabled gemtuzumab IgG1 without meditope or linker) (antibody, IgG1; also called control gemtuzumab antibody; gemtuzumab control antibody) heavy: not shown light: QIVLTQSPAIMSASPGEKVTITCSASSSISYMHWFQQRTNGSPRLWIYTTSNLASGVPARFSGSGSGTSYSLTISRMEAEDEADYYCHQRSTYPLTFGAGTKLELKRTVAAPSVFIFPPSDEQLKSGTASVVCLLNNFYPREAKVQWKVDNALQSGNSQESVTEQDSKDSTYSLSSTLTLSKADYEKHKVYACEVTHQGLSSPVTKSFNRGEC | – | no binding |
